From patent US20030219848A1 (DISCOVERX, published 2003)

Biological target: enzyme acceptor (EA) fragment of β-galactosidase (UniProt P00722 2-1024 = β-galactosidase, limits assumed)
Assay: cell-based or functional assay

enzyme acceptor (EA) fragment of β-galactosidase, sequence (P00722 other isoform, or with tags, fused parts or gaps limits assumed): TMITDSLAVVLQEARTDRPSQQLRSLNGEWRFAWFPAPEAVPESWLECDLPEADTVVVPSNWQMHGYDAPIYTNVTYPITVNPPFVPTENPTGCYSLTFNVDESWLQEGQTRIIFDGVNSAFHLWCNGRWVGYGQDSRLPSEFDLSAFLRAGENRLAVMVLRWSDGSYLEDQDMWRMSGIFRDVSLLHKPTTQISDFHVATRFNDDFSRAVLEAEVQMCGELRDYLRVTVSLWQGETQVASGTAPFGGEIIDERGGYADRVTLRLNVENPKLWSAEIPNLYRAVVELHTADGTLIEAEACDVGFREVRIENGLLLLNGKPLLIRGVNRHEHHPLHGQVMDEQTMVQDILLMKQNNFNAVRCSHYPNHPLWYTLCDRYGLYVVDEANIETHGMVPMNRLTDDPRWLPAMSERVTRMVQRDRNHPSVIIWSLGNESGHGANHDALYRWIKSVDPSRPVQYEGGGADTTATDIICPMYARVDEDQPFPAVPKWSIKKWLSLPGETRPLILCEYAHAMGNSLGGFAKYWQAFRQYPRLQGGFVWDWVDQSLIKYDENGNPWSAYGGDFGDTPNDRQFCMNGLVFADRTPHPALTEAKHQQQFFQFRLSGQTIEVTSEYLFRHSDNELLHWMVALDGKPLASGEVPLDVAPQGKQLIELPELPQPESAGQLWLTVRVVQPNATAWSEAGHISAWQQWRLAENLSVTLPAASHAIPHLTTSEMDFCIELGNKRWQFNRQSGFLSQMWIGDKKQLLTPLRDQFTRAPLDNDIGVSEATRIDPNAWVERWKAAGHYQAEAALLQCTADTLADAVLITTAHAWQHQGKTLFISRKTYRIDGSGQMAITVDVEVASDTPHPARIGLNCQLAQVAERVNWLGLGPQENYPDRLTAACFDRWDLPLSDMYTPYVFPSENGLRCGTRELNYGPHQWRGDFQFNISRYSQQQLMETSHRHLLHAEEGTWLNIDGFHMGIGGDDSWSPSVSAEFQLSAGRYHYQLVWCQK

Row | Binder | complementation activity relative to native 90 mer ED 28 (SEQ ID 17), at the same concentration (0.0123 nM) [%] | complementation activity (β-galactosidase activity after ED + EA incubation) relative to native 90 mer ED 28 (SEQ ID 17), ED 0.0123 nM, 60 min [%]
1 | SLAVVLQRRDWENPGVTQLNKLAAHPPFASWRNSEEARTDCPSQQL [46 mer ED (SEQ ID NO 10)] | 72 | 
2 | SLAVVLQRRDWENPGVTQLNRLAAHPPFASWRNSEEA [37 mer ED (SEQ ID NO 1), short enzyme donor fragment of β-galactosidase] |  | 45
